Experiment: soluble on expression in E. coli; label from the status in PepcDB or PDB records
For “MGSDKIHHHHHHMAEFTHLVNERRSASNFLSGHPITKEDLNEMFELVALAPSAFNLQHTKYVTVLDQDVKEKLKQAANGQYKVVSSSAVLLVLGDKQAYQQAADIYEGLKVLGILNKQEYDHMVQDTVSFYENRGEQFKRDEAIRNASLSAMMFMLSAAAAGWDTCPMIGFDAEAVKRILNIDDQFEVVMMITIGKEKTESRRPRGYRKPVNEFVEYM”, the “soluble on expression in E. coli” value was “soluble”.
With “MGSDKIHHHHHHMAESSFVYNGVEITWLKHAGFRIKGSRVVYIDPYDIPEELEKADVILVTHDHFDHMDVKSIRKLSKDDTVVVHPSGCIIEGFESCEVGVGTEAEVKGVKIKAVPAYNVDKPFHKENCVGYIVGIDGVKIYHAGDTDRIPEMKEIEVDIALLPVGGTYTMNLQEAIEAAKDIRAKYYIPMHFGAIPQTSADPEEFKRKVKGAVILKPLF” the “soluble on expression in E. coli” value was “not soluble”.
In the case of “MGSDKIHHHHHHMAFTSDSLAIFLAVLDAGSFSAAARKLGRVPSAVSMAIAQLEAELDLPLFDRATRKALPTNAALALEPQARQVICQLNLLDAQALQLHKGLEKRLTIAMAPELQTGRWSQPLEILAQAFPSLEVEVRSATQTEAIRLLHDGSVQLALVFERPGIDERESFLEAGSQLLVAVASPRHPAGQNSGSPLPEEAFAEQRQIIVASGKATGSDPRMVLSRRIWLTDSYLATLDLVQSGLGWAYLPQPLVEPLIASGALAEVRFDNMANRLRLWVDIIWIKSRPLGLGARRYLEVMRQLFEKEPPRA”, the “soluble on expression in E. coli” value is reported as “not soluble”.
In the case of “MGSDKIHHHHHHMAGVMSRRLDVDALRALVAIERHGGVTRAAEILGLSQSAVSHKIRRLETSLDCEILTRKANAPMFTTAGQDLLGYARRILGIHDEAVLSLSKSPLQGKIALGMTEDTTCTDLSRILGRFRRLYPEVSVRTQVRMSLVLQEQLSQGALDAAIIQVFQHEVRPADILLFRETLHWVKSRDLVLSAGKPVPFLSFDENCFYRRWGIDVGQDEDTVLETVFECSSAAGIIAGVTAGLGVALLSQRYLQPAMEIVDDKFPKPPDLAYVIRRARVPRNPALETLVREIEAEVKRYGTLQIAV”, the “soluble on expression in E. coli” value is reported as “not soluble”.
In the case of “MGSDKIHHHHHHMAHAHQKSDPHTVDFQVDPVVLELGQRFVDAGYELSLVGGPVRDLFLGRRSPDLDFTTDATPDQTLALIRKWADNFWEIGKAFGTIGMRKSGFQIEITTYRAEAYDPESRKPMVAFGSSLTDDLLRRDFTINAMALRLPSMELIDPFGGVRDLHASVLATPGAPETSFSDDPLRMMRAARFAAQLGVAVRGDVKHAMSQMAERISIISAERVREELVKLICGAHPRVGIDLLVDTGLAEFVLPEVSALRLEADEHHRHKDVYQHSLQVLEQAASLETDSDGAVPGPDFVLRFAALMHDVGKPATRRFEPGGAVSFRHHDMVGSKLTKKRMKALRFDNDTIKAVARLVELHMRFYGYGEAGWSDSAVRRYVTDAGPLLERLHRLTRSDVTTRNQRKADRLSFAYDDLEARIAALREQESLEAVRPDLDGGQIMALLGLKPGPVVGKAYKFLLEQRMEHGPLDPVVAEARLREWWADQPEAAEHQPAAGVELSTTEES”, the “soluble on expression in E. coli” value is reported as “not soluble”.
In the case of “MGSDKIHHHHHHMAIDLLNIARTGVLASQSQLGVTSNNIANANTVGYHRQVATQTTLDSQRLGSSFYGTGTYVSDVKRIYNDYAARELRIGQTTLSAAEASYGKLSELDQIFSQIGKVVPQSLTDLFAGLNSLADLPADLGIRSSTLNDAKQLANSLNQMQSTLNGQLNQTNDQITGMTKRINEISTELANLNLELMKSPNQDPILLDKQDALVQELSQYAQVNVIPLENGAKSIMLGGSIMLVSGEVAMSMSTATGDPFPNELQLMSSIGSQSVKADPSKLGGQLGALFEYRDQTLVPASLELDQLALGVADSFNKLQAQGFDLNGQVGANMFKDINDPLMSLGRVGGFTDNTGNATLGVNIDDTSALTGGSYELSFTAPSTYELRDTQRARLLRLP”, the “soluble on expression in E. coli” value is reported as “not soluble”.
In the case of “MGSDKIHHHHHHMAIYEARGFSSYLYPYKGPLEPFDYIAQFRPLKPPEDIDIEEYKRTQAPYCLSGKVTAEKNGSYKRNNASLVYRDLIFLDYDEIETGVNLPKIVSQTLWEYSYIIYPTIKHTPEKPRYRLVMKPSDVMTEATYKQVVKEIADKIGLPFDLASLTWSQLQGLPVTTGDPEDYQRYVNHGLDYPVPKNGSTPNRQVVTTYTPRPRSQRSITMRVIDTLFNGFGNEGGRNVALTKFVGLLFNKWVDCDLETAYELVQIANSVTTKPLPIDEIDRTFTSIAKAEYRKRG”, the “soluble on expression in E. coli” value is reported as “not soluble”.
For “MGSDKIHHHHHHMAKDIHSKAGTTLPPYFNIDPDAAMAELDQPTDTARFAEIAEGCARGRADLASRGLNEEGSKNLRLFSTWEITRYLIPVAQAHFRRVLKANPDLPQGRSETEGGAKWFTLDEVLRLRAFFAAQGSKAKNYLPYRPEGLPAKLVAVANFKGGVGKTSTAAHLAMSAALDGYKVLVIDLDSQGSMTSIFGGKIEDEWQTAFPLLARHYGEHLRVENQRRLDRGDAPQPLDESLTAAMEMTAKDVIQPTHWPNIDLIGAQLNLYWAEFQIPVWRMAARSWKLWDALTDRLEADGVLDQYDVVFIDTPPALGYLTINGLSAADILLVPMGASFLEFDSTGRFFDMLHSTFASIEEGENLAARALGRPEIGFEWDAVRAVITRYDGAQQGELAGLVQAYMGPTLSPHRQDFTALIGQAGEQVNGIYEADYRDFNRETYARGRETFDETYAAFKRLLNGVWRREELAVQEERAAS”, the “soluble on expression in E. coli” value was “not soluble”.
In the case of “MGSDKIHHHHHHMAKDITLRQLRYFIAAARAGQFSMAATNEHVSQSAITNAVIALEQALGTKLFDRGAHGVTMTVDGHDFYHHARHVLDSVRDAMHKPRAGARATSGTVRIAASYAVLGYFLPELLARFRASFPAIELDLRDMDRAVIENAVLDGTIDLGVTLVSNTPRLDAFEHRILIRSRRQLWTAPSHPLAHAASMSLADIAMHPYILLTVDEGEASTTRYWQAKGMQPNIAFRTGSMEAVRGLVANGFGVTVLSDMLFRAWSLDGTRIDARPVVDSIPPMEVGLIWRPGAALAPAAQQLRHFLIQVNSGEAD”, the “soluble on expression in E. coli” value is reported as “not soluble”.
For “MGSDKIHHHHHHMAKFIMVVGTSSNSGKTVLVSGICRMLSNKGYKVAPFKSQNMSLNSRVSVEDGEIAVAQYTQAMAARAEPSVHFNPILLKPKGNFVSQVIVHGNPYEDKDYNEYRSKKDDFLVKIKESIDYLDKNYDYVVIEGAGSCCEINLLNDDIANLKVAEIAGADAILVSDIDRGGVFASIYGTVQLLPENWKKLLKGFVINKFRGNIDVLKDGFEKIEELTNIPVIGTIPYDETLVLPEEDSQALDGKRVFGNLKSPIEVNVVKFSKIANFTDVDPFSSDCLMKYIDFNENITGDILILPGTRCSTVEMDLMKKYGMDKKILEFVENGGIVLGICGGYQALGKMLFDEDFSEGDVGTISGLGLFDMETTFGNKKAIKNSTGKISIFNQNFDVSGYELHEGYSVSNETPLISLSKGFGNCGDSYDGSFKMIGDSYIFGTYFHGILENFEFRNYLVNLARSKKNLSKIEDDTYAELFNENMDKLSKIIEENLDFSKIIG”, the “soluble on expression in E. coli” value was “not soluble”.
For “MGSDKIHHHHHHMAKIHMVLQGKGGVGKSMIAATIAQYKAGKGQKPLCIDTDPVNATFEGYKALNVRRLNIMDGDEINTRNFDALVEMIASAEGDVIIDNGASSFVPLSHYLISNQVPALLQDMGHELVVHTVVTGGQALVDTVSGFAQLASQFPAECLFVVWLNPYWGPIEHEGKGFEQLKAYTTNKGRVSAIIQIPALKEETYGRDFAEMLQDRRTFDEALADSALTIMTRQRLKIVKTQLFAQLENAAVL”, the “soluble on expression in E. coli” value was “not soluble”.
In the case of “MGSDKIHHHHHHMAKVVTLTATNGETIQFVEEVKAQGGMKDVMFSPNRDYVVAFLRDPADNETKERLEMITGQYRKRIFNQEGGEYLKKLYCWPTAVVEYNGKLGVVSPFYRDCFFFQYGSRNSDMLGIQGKEKDGKWFASANNRNKFLAPEELGDWMLHLKVCLMLARAVRRMHMAGLSHSDLGYKNCLIDPTTGQACLIDIDGLVVPGKHPPTVVGTPDFIAPEVVATSHLDVKDPNRKLPSRTTDLHALAVLIYMYLLYRHPLRGDKVFDPNDPQRDEELGMGKQALFVEHPTDRSNRIKTENIRPSEHPWKDTEKMPYTLTGTYLSDLFKRAFIDGLHNPQARPTADEWEQALVKTVDLLQPCSNASCEQKWYAFDNSKHPKCPFCGTAHHGKLPVLNLYSGTPDGKFRPDNHRIMVYSNQSLFKWHADNRVFPNEKLRSEDAKRVGYFVQHNGNWWLVNEALPEIYDVKAKQAIPIGGKVKLDDGGQILLQKGIGGRLLMVQMAG”, the “soluble on expression in E. coli” value is reported as “not soluble”.

From the DeepSol protein solubility set
